{"source": "paper doi:10.1101/2024.03.08.584019", "target": "GNNV-P R276A (Dragon grouper (Epinephelus lanceolatus) nervous necrosis virus)", "test": "AUC", "data": [{"substance": "GNNV-P R276A (domain or fragment)", "values": [{"measurement": "stoichiometry N", "result": 3}]}]}
